Data as given in the supplement of paper PMC12667976.

B1: library; numbered along this chain (parent)
chain: MATDAALRRLLRLHRTEIAVAVDSAFPLLHALADHDVVPEDKFQETLHLKEKEGCPQAFHALLSWLLTQDSTAILDFWRVLFKDYNLERYGRLQPILDSFPKDVDLSQPRKGRKPPAVPKALVPPPRLPTKRKASEEARAAAPAALTPRGTASPGSQLKAKPPKKPESSAEQQRLPLGNGIQTMSASVQRAVAMSSGDVPGARGAVEGILIQQVFESGGSKKCIQVGGEFYTPSKFEDSGSGKNKARSSSGPKPLVRAKGAQGAAPGGGEARLGQQGSVPAPLALPSDPQLHQKNEDECAVCRDGGELICCDGCPRAFHLACLSPPLREIPSGTWRCSSCLQATVQEVQPRAEEPRPQEPPVETPLPPGLRSAGEEVRGPPGEPLAGMDTTLVYKHLPAPPSAAPLPGLDSSALHPLLCVGPEGQQNLAPGARCGVCGDGTDVLRCTHCAAAFHWRCHFPAGTSRPGTGLRCRSCSGDVTPAPVEGVLAPSPARLAPGPAKDDTASHEPALHRDDLESLLSEHTFDGILQWAIQSMARPAAPFPS

Variants of: B1
Test: AIRE transcriptional activation functional score (insulin promoter-GFP; nonsense median 0, synonymous median 1) (normalised score); higher = higher AIRE activity (more reporter activation)
Conditions: with insulin promoter-GFP reporter in HEK293
Outline: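 The functional score compares variant enrichment between select and non-select populations after subtracting wild type. To obtain it, codon-optimized AIRE NNN-codon libraries spanning three regions were placed by Bxb1 recombinase into Flp-In T-REx HEK293 landing-pad cells with an insulin core promoter-GFP reporter. Cells with the top 10% GFP and unselected integrants were tile-sequenced after mCherry+, BFP− integrants had been sorted at day 7 and grown 7 more days. Only variants with 10 counts per million in non-select were kept, rescaled to nonsense median 0 and synonymous median 1, and averaged across biological replicates.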

AIRE transcriptional activation functional score: each site, then its substitutions
A532: G 0.0621; F -0.19; L 1.01; P 0.00951; S 0.141; C -0.268; Y 0.432; I 0.447; T 1.21; Q 0.186; R 0.215; V 0.836; N 0.0785; K -0.0221; D 0.194
L529: N -0.625; P -0.359; F 0.323; W 1.39; Y 0.598; V 0.905; D -0.829; R 0.121; G -0.203; C 0.595; M -0.503; A -0.089; H -0.499; S -0.21; Q -0.832; I 1.17; E -0.369; T 0.261
S535: I 0.212; G 1.74; K -0.212; H 0.704; V 0.00974; M -0.462; F 0.394; Q -0.0138; N 0.164; C 0.706; A 1.1; Y -1.02; P 0.472; T 0.745; L 0.146; R 0.12; W 0.301
Q534: P 0.0913; D -0.117; L 0.314; T 1.76; V 0.135; Y 0.193; G 1.08; A 1.7; H 0.807; F 0.205; K 0.887; I -0.04; S 0.372; R 0.171; M 0.598; N 1.8; C 1.08
P539: C 0.233; G 1.47; K 0.00204; M 0.297; T 0.931; Y -0.367; R 0.158; A 0.371; F 0.224; D 0.00758; Q 0.339; H 0.373; W 0.719; V 0.434; N 0.745; L -0.0017; I 0.0871; S 0.85
P544: Q 0.746; T 0.985; G 1.38; C 0.924; A 1.28; V 0.842; R 0.52; Y 1.65; S 0.867; F 0.586; N -0.709; I 1.16; H 0.559; L 1.19
Q530: P 0.385; N 1.52; D 0.251; K 0.392; I 0.183; E 0.29; T 1.05; M -0.198; S 0.546; F -0.0468; V -0.295; C -0.0453; A 0.824; H 1.21; W -0.0706; R -0.0677; L -0.018; Y 0.438
F543: P 1.13; C 0.138; M 0.745; G 0.595; I 0.17; T 0.669; D 0.845; E 0.561; Y 0.833; W 1.23; S 0.493; R 0.296; V 0.18; Q 0.317; N 0.535; L 0.729; A 0.367
S545: Y 1.35; F 1.04; A -0.21; T 0.998; P 0.59; C 1.3
I533: G 0.261; Q 0.144; D 0.569; S 0.404; E -0.386; W 0.193; C 0.256; N -0.116; R 0.266; V 0.411; M 1.13; T 0.516; H 0.217; Y 0.199; L 0.274
A537: Q 0.813; I 0.231; T 1.41; G 0.792; P 0.545; M 0.458; S 1.1; H 0.783; E 0.915; C 0.622; K 0.346; V 0.891; R -0.0391; L 0.0269
A541: G 0.847; I 1.3; H 0.976; S 0.717; T 0.842; P 0.791; D 0.469; L 0.957; Y 0.977; N 0.974; F 0.75; E 0.858; K 0.252; Q 1.05; V 1.1; W 0.259; R 0.198; M 0.557; C 1.43
P542: T 0.963; C 1.05; G 0.957; E 0.426; V 1.16; A 1.19; L 1.07; D 0.633; K 0.249; H 0.651; M 1.3; Y 1.25; S 1.07; F 0.923; I 1.09; N -0.142; R 0.209; W 0.476; Q 0.942
M536: C 1.08; L 1.04; K -0.0329; W 0.508; I 1.19; V 0.514; D 0.726; F 1.95; A 0.0376; E 0.588; R -0.0464; S 0.272; Y -0.0719; G 0.186; T 1.15; H 1; N 0.506; P 0.215
R538: S 0.733; W 1.54; K 1.18; M 1.05; L 1.52; N -0.187; A 0.19; T 0.72; I 1.65; G 0.544
A540: K 0.195; C 1.37; Y 0.912; P 1.07; E 0.617; L 0.964; I 0.978; T 0.867; Q 0.739; M 0.694; F 0.417; H 0.844; G 1; R 0.119; N 1.02; W 0.41; D 0.625; S 0.988; V 1.11
W531: L 0.702; R -0.126; D 0.357; K 0.178; Q 0.225; N -0.329; V -0.0485; I 0.285; F 0.12; E -0.39; S 0.218; M 0.434; G 0.0105; P -0.179; C 0.138; A -0.104
